Measurements from US20170240637A1 (Memorial Sloan Kettering, published 2017).
Changes are numbered by the printed parent chain. Values belong to the binder of their own block, whether it stands above or below them.

How the values were obtained:
4Ig-B7H3 [1] = target: T1, 4Ig-B7H3 (human, UniProt Q5ZPR3 27-461, limits assumed); assay: SPR (Biacore T-100), 4Ig-B7H3 on CM5 chip, scFv injected
T1 construct: also called 4Ig-B73H3
T1 sequence (looked up): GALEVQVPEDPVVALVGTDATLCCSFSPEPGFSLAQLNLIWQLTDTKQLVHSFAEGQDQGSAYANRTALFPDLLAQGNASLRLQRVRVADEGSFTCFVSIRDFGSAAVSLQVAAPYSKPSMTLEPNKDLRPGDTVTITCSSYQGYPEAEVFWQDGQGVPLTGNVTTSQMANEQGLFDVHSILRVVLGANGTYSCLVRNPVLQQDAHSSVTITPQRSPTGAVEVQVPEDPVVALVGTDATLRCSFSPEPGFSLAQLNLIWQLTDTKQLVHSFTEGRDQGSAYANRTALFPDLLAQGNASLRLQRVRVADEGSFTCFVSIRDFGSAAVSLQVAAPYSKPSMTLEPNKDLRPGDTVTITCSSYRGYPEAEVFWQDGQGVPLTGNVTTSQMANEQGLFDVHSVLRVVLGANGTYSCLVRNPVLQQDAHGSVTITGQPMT
Experimental: (§1) In brief, B7H3 antigen (either 2Ig-B7H3, 4Ig-B7H3, 2Ig-B7H3-mFc, 4Ig-B7H3-mFc), was directly immobilized onto the CM5 sensor chip via […]. Reference surface was set up for nonspecific binding and refractive index changes. For analysis of the kinetics of interactions, varying concentrations of scFvs were injected at flow rate of 30 μl/min using running buffer containing 10 mM HEPES, 150 mM NaCl, 3 mM EDTA, and 0.05% Surfactant P-20 (pH 7.4). The association and dissociation phase data were fitted simultaneously to a 1:1 model by using BIAevaluation 3.2. All the experiments were done at 25° C.

4Ig-B7H3 [2] = target: T1, 4Ig-B7H3; assay: SPR (Biacore), scFv; antigen not given
Experimental: as §1

4Ig-B7H3 [3] = target: T1, 4Ig-B7H3; assay: SPR
[4] = target: T2, 4Ig-B7H3 fused to mouse Fc (B7H3-mFc) (human, UniProt Q5ZPR3 29-466, limits assumed, biotinylated on primary amines (NHS-biotin) in the experiment of paragraph 316); assay: SPR, IgG on 4Ig-B7H3-Fc
T2 construct: Expressed in DG44 CHO cells; also called 4Ig-B7H3-Fc; 4Ig-B7H3-mFc; not shown: mouse Fc
T2 sequence (looked up): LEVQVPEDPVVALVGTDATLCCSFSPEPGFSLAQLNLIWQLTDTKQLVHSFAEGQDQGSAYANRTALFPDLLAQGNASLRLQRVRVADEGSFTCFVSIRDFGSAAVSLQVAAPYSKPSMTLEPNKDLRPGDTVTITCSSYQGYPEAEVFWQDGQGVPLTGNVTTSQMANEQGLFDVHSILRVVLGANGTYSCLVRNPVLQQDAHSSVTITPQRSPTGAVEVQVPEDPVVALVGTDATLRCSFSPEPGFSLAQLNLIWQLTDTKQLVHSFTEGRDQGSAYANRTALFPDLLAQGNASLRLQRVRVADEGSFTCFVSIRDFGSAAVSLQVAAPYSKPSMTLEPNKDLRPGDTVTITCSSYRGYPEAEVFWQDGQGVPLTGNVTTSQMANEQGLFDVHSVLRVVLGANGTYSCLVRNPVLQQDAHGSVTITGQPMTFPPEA
Experimental: (§2) In brief, B7H3 antigen (either 2Ig-B7H3, 4Ig-B7H3, 2Ig-B7H3-mFc, 4Ig-B7H3-mFc), was directly immobilized onto the CM5 sensor chip via […]. Reference surface was set up for nonspecific binding and refractive index changes. […] The association and dissociation phase data were fitted simultaneously to a 1:1 model by using BIAevaluation 3.2. All the experiments were done at 25° C.

4Ig-B7H3 [5] = target: T1, 4Ig-B7H3; assay: SPR, IgG on 4Ig-B7-H3 without Fc fusion
Experimental: as §2

wild type 2Ig-B7H3-mFc [6] = target: T3, wild type 2Ig-B7H3-mFc (human, UniProt Q5ZPR3-2 29-248, limits assumed); assay: SPR, IgG on 2Ig-B7H3-mFc
T3 construct: Q5ZPR3 canonical entry is the 4Ig isoform; the 2Ig form is its shorter isoform; also called 2Ig-B7H3-Fc; WT 2Ig-B7H3-Fc; not shown: mouse Fc
T3 sequence (looked up): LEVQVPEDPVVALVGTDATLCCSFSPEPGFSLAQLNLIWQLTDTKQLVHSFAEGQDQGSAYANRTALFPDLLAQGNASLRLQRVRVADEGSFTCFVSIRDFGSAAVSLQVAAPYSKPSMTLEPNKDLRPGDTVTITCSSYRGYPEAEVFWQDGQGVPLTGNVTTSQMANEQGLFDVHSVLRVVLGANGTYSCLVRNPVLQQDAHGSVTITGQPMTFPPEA
Experimental: as §2

[7] = target: T4, 2Ig-B7H3 without Fc fusion (human, UniProt Q5ZPR3-2 29-245, limits assumed); assay: SPR, IgG on 2Ig-B7-H3 without Fc fusion
T4 construct: also called 2IgB7H3 (R&D)
T4 sequence (looked up): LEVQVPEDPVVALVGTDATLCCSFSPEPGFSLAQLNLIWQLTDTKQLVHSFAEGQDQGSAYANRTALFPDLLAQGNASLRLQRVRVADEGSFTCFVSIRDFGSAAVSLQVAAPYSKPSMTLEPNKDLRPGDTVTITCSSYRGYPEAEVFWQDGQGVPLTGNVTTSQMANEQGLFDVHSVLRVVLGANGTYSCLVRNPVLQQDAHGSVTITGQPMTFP
Experimental: as §2

[8] = target: B7H3 on B7H3-positive human tumor cells (M14, LAN-1, IMR-32, HeLa) (human) (UniProt Q5ZPR3); assay: cell-binding assay of 131I-labelled antibody on LAN-1 cells
wild type 2Ig-B7H3-mFc [9] = target: T3, wild type 2Ig-B7H3-mFc; assay: SPR, antigen on CM5 chip
Experimental: as §1

4Ig-B7H3 [10] = target: T1, 4Ig-B7H3; assay: SPR, antigen on CM5 chip
Experimental: as §1

- Kd (4Ig-B7H3 [1]): 144 nM
- koff (4Ig-B7H3 [1]): 0.000919 s⁻¹
- kon (4Ig-B7H3 [1]): 6380 M⁻¹ s⁻¹
- Kd (4Ig-B7H3 [2]): 144 nM
- koff (4Ig-B7H3 [2]): 0.000919 s⁻¹
- kon (4Ig-B7H3 [2]): 6380 M⁻¹ s⁻¹
B1: hu8H9 H3L3 scFv (scFv)
scFv: QVQLVQSGAEVVKPGASVKLSCKASGYTFTNYDINWVRQRPEQGLEWIGWIFPGDGSTQYNEKFKGKATLTTDTSTSTAYMELSSLRSEDTAVYFCARQTTATWFAYWGQGTLVTVSSGGGGSGGGGSGGGGSEIVMTQSPATLSVSPGERVSLSCRASQSISDYLHWYQQKSHESPRLLIKYASQSISGIPARFSGSGSGSEFTLTINSVEPEDVGVYYCQNGHSFPLTFGQGTKLELKR
notes: also called parental hu8H9 H3L3; not shown: FLAG and His tags

- Kd (4Ig-B7H3 [2]): 0.92 nM
- koff (4Ig-B7H3 [2]): 9.52e-05 s⁻¹
- kon (4Ig-B7H3 [2]): 104000 M⁻¹ s⁻¹
B2: hu8H9 3.1 scFv (scFv)
scFv: B1 scFv with A24T, E42G, G56D, A102G, S153T, H167Y
notes: not shown: FLAG and His tags

- Kd (4Ig-B7H3 [2]): 45.7 nM
- koff (4Ig-B7H3 [2]): 0.000557 s⁻¹
- kon (4Ig-B7H3 [2]): 12200 M⁻¹ s⁻¹
B3: hu8H9 4.1 scFv (scFv)
scFv: QVQLVQSGAEVVKPGASVKVSCKASGYTFTNYDINWVRQRPEQGLEWIGWIFPGDGSTQYNEKFKGRVTMTTDTSTSTVYMELSSLRSEDTAVYFCARQTTATWFAYWGQGTLVTVSSGGGGSGGGGSGGGGSEIVMTQSPATLSVSPGERVTLSCRASQSISDYLHWYQQKSHQAPRLLIKYASQSISGIPARFSGSGSGSEFTLTISSLQPEDFGVYYCQNGHSFPLTFGQGTKLELKR
notes: not shown: FLAG and His tags

- Kd (4Ig-B7H3 [1]): 5.6 nM
- koff (4Ig-B7H3 [1]): 0.000143 s⁻¹
- kon (4Ig-B7H3 [1]): 25400 M⁻¹ s⁻¹
B4: hu8H9 clone S7.2 scFv (scFv)
scFv: B1 scFv with V18C, A24T, E42G, G131V, S153T, S163G, H167Y
notes: not shown: FLAG and His tags

- Kd (4Ig-B7H3 [1]): 1.2 nM
- koff (4Ig-B7H3 [1]): 9.99e-05 s⁻¹
- kon (4Ig-B7H3 [1]): 86100 M⁻¹ s⁻¹
- fold affinity improvement against parental hu8H9 H3L3 scFv (4Ig-B7H3 [3]): > 50 fold
- fold binding improvement against parental hu8H9 H3L3 scFv (4Ig-B7H3 [3]): > 100 fold
B5: hu8H9 clone S7.22 scFv (scFv)
scFv: B1 scFv with A24T, E42G, G56D, S88P, A102G, S153T, H167Y, S189P
notes: not shown: FLAG and His tags

- Kd (4Ig-B7H3 [1]): 277 nM
- koff (4Ig-B7H3 [1]): 0.00132 s⁻¹
- kon (4Ig-B7H3 [1]): 4750 M⁻¹ s⁻¹
B6: hu8H9 clone S7.28 scFv (scFv)
scFv: B1 scFv with A24T, E42G, R87G, A97T, G129S, S153T, S163G, H167Y
notes: not shown: FLAG and His tags

- Kd (4Ig-B7H3 [1]): 2.7 nM
- koff (4Ig-B7H3 [1]): 0.000152 s⁻¹
- kon (4Ig-B7H3 [1]): 55900 M⁻¹ s⁻¹
- fold affinity improvement against parental hu8H9 H3L3 scFv (4Ig-B7H3 [3]): > 50 fold
B7: hu8H9 clone S7.29 scFv (scFv)
scFv: B1 scFv with A24T, E42G, M81L, R87G, A102G, S153T, H167Y
notes: not shown: FLAG and His tags

- Kd (4Ig-B7H3 [1]): 2.2 nM
- koff (4Ig-B7H3 [1]): 0.000113 s⁻¹
- kon (4Ig-B7H3 [1]): 51000 M⁻¹ s⁻¹
- fold affinity improvement against parental hu8H9 H3L3 scFv (4Ig-B7H3 [3]): > 50 fold
B8: hu8H9 clone S7.17 scFv (scFv)
scFv: B1 scFv with A24T, E42G, I48V, A102S, S153T, S161P, H167Y, H225Y
notes: not shown: FLAG and His tags

- Kd (4Ig-B7H3 [2]): 1.7 nM
- koff (4Ig-B7H3 [2]): 9.84e-05 s⁻¹
- kon (4Ig-B7H3 [2]): 58800 M⁻¹ s⁻¹
B9: hu8H9 5.1 scFv (scFv)
scFv: B3 scFv with A24T, E42G, G56D, A102G, H167Y
notes: not shown: FLAG and His tags

- Kd [4]: 6.6 nM
- koff [4]: 0.0452 s⁻¹
- kon [4]: 6.83e+06 M⁻¹ s⁻¹
- Kd (4Ig-B7H3 [5]): 33 nM
- koff (4Ig-B7H3 [5]): 0.000677 s⁻¹
- kon (4Ig-B7H3 [5]): 20500 M⁻¹ s⁻¹
- Kd (wild type 2Ig-B7H3-mFc [6]): 7.5 nM
- koff (wild type 2Ig-B7H3-mFc [6]): 0.035 s⁻¹
- kon (wild type 2Ig-B7H3-mFc [6]): 4.67e+06 M⁻¹ s⁻¹
- Kd [7]: 45 nM
- koff [7]: 0.000607 s⁻¹
- kon [7]: 13500 M⁻¹ s⁻¹
B10: hu8H9 H3L3 IgG1 (antibody, V domains shown)
VH: QVQLVQSGAEVVKPGASVKLSCKASGYTFTNYDINWVRQRPEQGLEWIGWIFPGDGSTQYNEKFKGKATLTTDTSTSTAYMELSSLRSEDTAVYFCARQTTATWFAYWGQGTLVTVSS
VL: EIVMTQSPATLSVSPGERVSLSCRASQSISDYLHWYQQKSHESPRLLIKYASQSISGIPARFSGSGSGSEFTLTINSVEPEDVGVYYCQNGHSFPLTFGQGTKLELKR

- in vitro immunoreactivity [8]: 69%
- Kd (wild type 2Ig-B7H3-mFc [9]): 0.28 nM
- koff (wild type 2Ig-B7H3-mFc [9]): 1.03e-05 s⁻¹
- kon (wild type 2Ig-B7H3-mFc [9]): 36700 M⁻¹ s⁻¹
- Kd (4Ig-B7H3 [5]): 8.9 nM
- koff (4Ig-B7H3 [5]): 0.000165 s⁻¹
- kon (4Ig-B7H3 [5]): 18500 M⁻¹ s⁻¹
- Kd [7]: 0.81 nM
- koff [7]: 2.24e-05 s⁻¹
- kon [7]: 27800 M⁻¹ s⁻¹
B11: murine 8H9 (m8H9) IgG1 monoclonal antibody (antibody, V domains shown)
VH: B10 VH with V5Q, V11L, T76S, E82Q, S85R, R87T, T91S, S118A
VL: DIVMTQSPATLSVTPGDRVSLSCRASQSISDYLHWYQQKSHESPRLLIKYASQSISGIPSRFSGSGSGSDFTLSINSVEPEDVGVYYCQNGHSFPLTFGAGTKLELK
modifications: 131I-labelled in the LAN-1 immunoreactivity assay; the label is not carried by the letters.
notes: also called MAb 8H9

- Kd [4]: 42.7 nM
- koff [4]: 0.0239 s⁻¹
- kon [4]: 560000 M⁻¹ s⁻¹
- Kd (4Ig-B7H3 [10]): 34.8 nM
- Kd (wild type 2Ig-B7H3-mFc [6]): 68.4 nM
- koff (wild type 2Ig-B7H3-mFc [6]): 0.00116 s⁻¹
- kon (wild type 2Ig-B7H3-mFc [6]): 17000 M⁻¹ s⁻¹
B12: hu8H9-H1L2 IgG1 (antibody, V domains shown)
VH: B10 VH with V12K, R40A, E42G
VL: B10 VL with S20T, S69T, L106I

- Kd (4Ig-B7H3 [10]): 112 nM
B13: hu8H9-H1L1 IgG1 (antibody, V domains shown)
VH: B10 VH with V12K, R40A, E42G
VL: B10 VL with S20T, S40P, H41G, E42Q, S43A, S69T, N76S, E79Q, L106I

- Kd (4Ig-B7H3 [10]): 34.8 nM
B14: hu8H9-H2L1 IgG1 (antibody, V domains shown)
VH: B10 VH with R40A, E42G, S85R, R87T
VL: B10 VL with S20T, S40P, H41G, E42Q, S43A, S69T, N76S, E79Q, L106I

- Kd (4Ig-B7H3 [10]): 38.6 nM
B15: hu8H9-H2L2 IgG1 (antibody, V domains shown)
VH: B10 VH with R40A, E42G, S85R, R87T
VL: B10 VL with S20T, S69T, L106I
